B1: full-length BICD2 tagged on the C-terminus with mini-TurboID (BICD2-mTrbo) [human] / Dynein intermediate chain (DYNC1I1) [human (endogenous in HEK293)] (parent)
chain 1: MSAPSEEEEYARLVMEAQPEWLRAEVKRLSHELAETTREKIQAAEYGLAVLEEKHQLKLQFEELEVDYEAIRSEMEQLKEAFGQAHTNHKKVAADGESREESLIQESASKEQYYVRKVLELQTELKQLRNVLTNTQSENERLASVAQELKEINQNVEIQRGRLRDDIKEYKFREARLLQDYSELEEENISLQKQVSVLRQNQVEFEGLKHEIKRLEEETEYLNSQLEDAIRLKEISERQLEEALETLKTEREQKNSLRKELSHYMSINDSFYTSHLHVSLDGLKFSDDAAEPNNDAEALVNGFEHGGLAKLPLDNKTSTPKKEGLAPPSPSLVSDLLSELNISEIQKLKQQLMQMEREKAGLLATLQDTQKQLEHTRGSLSEQQEKVTRLTENLSALRRLQASKERQTALDNEKDRDSHEDGDYYEVDINGPEILACKYHVAVAEAGELREQLKALRSTHEAREAQHAEEKGRYEAEGQALTEKVSLLEKASRQDRELLARLEKELKKVSDVAGETQGSLSVAQDELVTFSEELANLYHHVCMCNNETPNRVMLDYYREGQGGAGRTSPGGRTSPEARGRRSPILLPKGLLAPEAGRADGGTGDSSPSPGSSLPSPLSDPRREPMNIYNLIAIIRDQIKHLQAAVDRTTELSRQRIASQELGPAVDKDKEALMEEILKLKSLLSTKREQITTLRTVLKANKQTAEVALANLKSKYENEKAMVTETMMKLRNELKALKEDAATFSSLRAMFATRCDEYITQLDEMQRQLAAAEDEKKTLNSLLRMAIQQKLALTQRLELLELDHEQTRRGRAKAAPKTKPATPSL
chain 2: MSDKSDLKAELERKKQRLAQIREEKKRKEEERKKKEADMQQKKEPVQDDSDLDRKRRETEALLQSIGISPEPPLVQPLHFLTWDTCYFHYLVPTPMSPSSKSVSTPSEAGSQDSGDLGPLTRTLQWDTDPSVLQLQSDSELGRRLHKLGVSKVTQVDFLPREVVSYSKETQTPLATHQSEEDEEDEEMVESKVGQDSELENQDKKQEVKEAPPRELTEEEKQQILHSEEFLIFFDRTIRVIERALAEDSDIFFDYSGRELEEKDGDVQAGANLSFNRQFYDEHWSKHRVVTCMDWSLQYPELMVASYNNNEDAPHEPDGVALVWNMKFKKTTPEYVFHCQSSVMSVCFARFHPNLVVGGTYSGQIVLWDNRSHRRTPVQRTPLSAAAHTHPVYCVNVVGTQNAHNLITVSTDGKMCSWSLDMLSTPQESMELVYNKSKPVAVTGMAFPTGDVNNFVVGSEEGTVYTACRHGSKAGIGEVFEGHQGPVTGINCHMAVGPIDFSHLFVTSSFDWTVKLWTTKHNKPLYSFEDNADYVYDVMWSPVHPALFACVDGMGRLDLWNLNNDTEVPTASVAIEGASALNRVRWAQAGKEVAVGDSEGRIWVYDVGELAVPHNDEWTRFARTLVEIRANRADSEEEGTVELSA

Variants of: B1
Assay: co-immunoprecipitation (V5 trap beads) with western blot quantification
Conditions: parent: 1, read off a plot

ratio to parent | Variant
5.1 | chain 1 R694C
4.6 | chain 1 R747C
1.8 | chain 1 N188T

Source: article PMC12674617
